This is an account of results in IntAct's records for PubMed 33762578.

B1: E3 ubiquitin-protein ligase NEDD4 (Homo sapiens), P46934-3 (parent)
chain: MAQSLRLHFAARRSNTYPLSETSGDDLDSHVHMCFKRPTRISTSNVVQMKLTPRQTALAPLIKENVQSQERSSVPSSENVNKKSSCLQISLQPTRYSGYLQSSNVLADSDDASFTCILKDGIYSSAVVDNELNAVNDGHLVSSPAICSGSLSNFSTSDNGSYSSNGSDFGSCASITSGGSYTNSVISDSSSYTFPPSDDTFLGGNLPSDSTSNRSVPNRNTTPCEIFSRSTSTDPFVQDDLEHGLEIMKLPVSRNTKIPLKRYSSLVIFPRSPSTTRPTSPTSLCTLLSKGSYQTSHQFIISPSEIAHNEDGTSAKGFLSTAVNGLRLSKTICTPGEVRDIRPLHRKGSLQKKIVLSNNTPRQTVCEKSSEGYSCVSVHFTQRKAATLDCETTNGDCKPEMSEIKLNSDSEYIKLMHRTSACLPSSQNVDCQININGELERPHSQMNKNHGILRRSISLGGAYPNISCLSSLKHNCSKGGPSQLLIKFASGNEGKVDNLSRDSNRDCTNELSNSCKPGWVVLDQPDAACHLQQQQEPSPLPPGWEERQDILGRTYYVNHESRRTQWKRPTPQDNLTDAENGNIQLQAQRAFTTRRQISEETESVDNRESSENWEIIREDEATMYSNQAFPSPPPSSNLDVPTHLAEELNARLTIFGNSAVSQPASSSNHSSRRGSLQAYTFEEQPTLPVLLPTSSGLPPGWEEKQDERGRSYYVDHNSRTTTWTKPTVQATVETSQLTSSQSSAGPQSQASTSDSGQQVTQPSEIEQGFLPKGWEVRHAPNGRPFFIDHNTKTTTWEDPRLKIPAHLRGKTSLDTSNDLGPLPPGWEERTHTDGRIFYINHNIKRTQWEDPRLENVAITGPAVPYSRDYKRKYEFFRRKLKKQNDIPNKFEMKLRRATVLEDSYRRIMGVKRADFLKARLWIEFDGEKGLDYGGVAREWFFLISKEMFNPYYGLFEYSATDNYTLQINPNSGLCNEDHLSYFKFIGRVAGMAVYHGKLLDGFFIRPFYKMMLHKPITLHDMESVDSEYYNSLRWILENDPTELDLRFIIDEELFGQTHQHELKNGGSEIVVTNKNKKEYIYLVIQWRFVNRIQKQMAAFKEGFFELIPQDLIKIFDENELELLMCGLGDVDVNDWREHTKYKNGYSANHQVIQWFWKAVLMMDSEKRIRLLQFVTGTSRVPMNGFAELYGSNGPQSFTVEQWGTPEKLPRAHTCFNRLDLPPYESFEELWDKLQMAIENTQGFDGVD

The test covers variants of B1. The settings on record: with spike_sars2 S.
R877Q: the “effect of a mutation on the interaction” value was “increasing interaction strength”.

In the case of I843R, the “effect of a mutation on the interaction” value is reported as “increasing interaction strength”.
